This is an account of results in US20200164059A1.

Assay [1] concerns the target EBV gH/gL heterodimer, recombinant ectodomain (Epstein Barr virus). Description: BLI kinetics, pH 7.4, ligand AMMO1Q1NHC Mab, analyte gH/gL; KD M x10^-9. For orientation: Biolayer interferometry detects binding as a change in optical thickness at a sensor tip.
Assay [2] has the same target. Description: BLI kinetics, pH 7.4, ligand AMMO1Q1NHC Mab, analyte gH/gL; KA M^-1 x10^7.
Assay [3] has the same target. Description: BLI kinetics, pH 7.4, ligand AMMO1Q1NHC Mab, analyte gH/gL; kon (1/Ms) x10^5.
Assay [4] shares this target. Description: BLI kinetics, pH 7.4, ligand AMMO1Q1NHC Mab, analyte gH/gL; koff (1/s) x10^-3.
The target of assay [5] is T1, EBV gH/gL heterodimer, recombinant ectodomain (Epstein Barr virus). Description: BLI kinetics, pH 7.4, ligand gH/gL, analyte AMMO1 Fab; KD M x10^-9.
Assay [6] has as its target T1, EBV gH/gL heterodimer, recombinant …. Description: BLI kinetics, pH 7.4, ligand gH/gL, analyte AMMO1 Fab; KA M^-1 x10^7.

B1: AMMO1 containing a Q1N heavy chain mutation (antibody, V domains shown)
VH: NVQLVQSGADVKKPGASVKVSCKASGYTFIHFGISWVRQAPGQGLEWMGWIDTNNGNTNYAQSLQGRVTMTTDTSTGTAYMELRSLSTDDTAVYFCARALEMGHRSGFPFDYWGQGVLVTVSP
VL: SYELTQPPSVSVAPGQRATITCGGHNIGAKNVHWYQQKPGQAPVLVIQYDSDRPSGIPERFSGSNSGSTATLTISRVEAGDEADYYCQVWDSGRGHPLYVFGGGTKVTVL
One may read the Kd as the equilibrium constant for the complex coming apart. For orientation: kon means the second-order rate constant of association. For orientation: koff means the first-order rate constant of dissociation. Regarding B1, the Kd in assay [1] was 0.16 nM. The Ka in assay [2] amounted to 6.34e+09 M⁻¹. The kon in assay [3] stood at 244000 M⁻¹ s⁻¹. Further, the koff in assay [4] was found to be 3.85e-05 s⁻¹.

B2: AMMO1 Fab (Fab, V domains shown)
VH: QVQLVQSGADVKKPGASVKVSCKASGYTFIHFGISWVRQAPGQGLEWMGWIDTNNGNTNYAQSLQGRVTMTTDTSTGTAYMELRSLSTDDTAVYFCARALEMGHRSGFPFDYWGQGVLVTVSP
VL: SYELTQPPSVSVAPGQRATITCGGHNIGAKNVHWYQQKPGQAPVLVIQYDSDRPSGIPERFSGSNSGSTATLTISRVEAGDEADYYCQVWDSGRGHPLYVFGGGTKVTVL
modifications: not checked
For the molecule B2, the Kd in assay [5] came out at 0.12 nM. Besides, in assay [6], the Ka stood at 8.12e+09 M⁻¹.
